Data on seven molecules can be found in PMC6888645 (2019).

Assay [1] has as its target T1, F-actin (skeletal muscle actin, polymerised) ( (rabbit or chicken skeletal …, UniProt P68135 1-377)).
Assay [2] deals with T1, F-actin (skeletal muscle actin, …). This is another data set of the same source.

Read-outs that look alike come from different tables or passages of the source.

B1: N-CAP1, N-terminal fragment of human cyclase-associated protein 1 (original coiled coil and helical folded domain) (domain or fragment)
chain: MADMQNLVERLERAVGRLEAVSHTSDMHRGYADSPSKAGAAPYVQAFDSLLAGPVAEYLKISKEIGGDVQKHAEMVHTGLKLERALLVTASQCQQPAENKLSDLLAPISEQIKEVITFREKNRGSKLFNHLSAVSESIQALGWVAMAPKPGPYVKEMNDAAMFYTNRVLKEYKDVDKKHVDWVKAYLSIWTELQAYIKEFHTTGLAWSKTGPVAKELSGL
On to B1, for which the Kd (in general, a measure of binding affinity in units of concentration) in assay [1] was determined as 0.91 µM.

B2: ΔCC-N-CAP2, helical folded domain of human CAP2 with the coiled coil deleted (a.a. 30-220) (domain or fragment)
chain: GNCGEVNGVIAGVAPSVEAFDKLMDSMVAEFLKNSRILAGDVETHAEMVHSAFQAQRAFLLMASQYQQPHENDVAALLKPISEKIQEIQTFRERNRGSNMFNHLSAVSESIPALGWIAVSPKPGPYVKEMNDAATFYTNRVLKDYKHSDLRHVDWVKSYLNIWSELQAYIKEHHTTGLTWSKTGPVASTVS
As for B2, the affinity in assay [2], expressed as Kd, was 21.9 µM.

B3: ΔCC-N-CAP1, helical folded domain of human CAP1 with the coiled coil (a.a. 1-29) deleted (domain or fragment)
chain: GYADSPSKAGAAPYVQAFDSLLAGPVAEYLKISKEIGGDVQKHAEMVHTGLKLERALLVTASQCQQPAENKLSDLLAPISEQIKEVITFREKNRGSKLFNHLSAVSESIQALGWVAMAPKPGPYVKEMNDAAMFYTNRVLKEYKDVDKKHVDWVKAYLSIWTELQAYIKEFHTTGLAWSKTGPVAKELSGL
As for B3, the Kd in assay [1] was 5.69 µM.

B4: DD-N-CAP2, human CAP2 helical folded domain with the coiled coil (a.a. 1-29) replaced by the dimerization domain 2L4HC2_23 (other)
chain: GTRTEIIRELERSLREQEELAKRLKELLRELERLQREGSSDEDVRELLREIKELVEEIEKLAREQKYLVEELKRQDGNCGEVNGVIAGVAPSVEAFDKLMDSMVAEFLKNSRILAGDVETHAEMVHSAFQAQRAFLLMASQYQQPHENDVAALLKPISEKIQEIQTFRERNRGSNMFNHLSAVSESIPALGWIAVSPKPGPYVKEMNDAATFYTNRVLKDYKHSDLRHVDWVKSYLNIWSELQAYIKEHHTTGLTWSKTGPVASTVS
B4 had a Kd in assay [2] of 7.11 µM.

B5: TD-N-CAP1, human CAP1 helical folded domain with the coiled coil (a.a. 1-29) replaced by the trimerization domain 2L6HC3_6 (other)
chain: GTKYKIKETLKRLEDSLRELRRILEELKEMLERLEKNPDKDVIVEVLKVIVKAIEASVENQRISAENQKALAESDGYADSPSKAGAAPYVQAFDSLLAGPVAEYLKISKEIGGDVQKHAEMVHTGLKLERALLVTASQCQQPAENKLSDLLAPISEQIKEVITFREKNRGSKLFNHLSAVSESIQALGWVAMAPKPGPYVKEMNDAAMFYTNRVLKEYKDVDKKHVDWVKAYLSIWTELQAYIKEFHTTGLAWSKTGPVAKELSGL
Consider B5, for which binding in assay [1] was put at a Kd of 2.97 µM.

B6: DD-N-CAP1, human CAP1 helical folded domain with the coiled coil (a.a. 1-29) replaced by the dimerization domain 2L4HC2_23 (other)
chain: GTRTEIIRELERSLREQEELAKRLKELLRELERLQREGSSDEDVRELLREIKELVEEIEKLAREQKYLVEELKRQDGYADSPSKAGAAPYVQAFDSLLAGPVAEYLKISKEIGGDVQKHAEMVHTGLKLERALLVTASQCQQPAENKLSDLLAPISEQIKEVITFREKNRGSKLFNHLSAVSESIQALGWVAMAPKPGPYVKEMNDAAMFYTNRVLKEYKDVDKKHVDWVKAYLSIWTELQAYIKEFHTTGLAWSKTGPVAKELSGL
In assay [1], B6 showed a Kd of 3.42 µM.

B7: TD-N-CAP2, human CAP2 helical folded domain with the coiled coil (a.a. 1-29) replaced by the trimerization domain 2L6HC3_6 (other)
chain: GTKYKIKETLKRLEDSLRELRRILEELKEMLERLEKNPDKDVIVEVLKVIVKAIEASVENQRISAENQKALAESDGNCGEVNGVIAGVAPSVEAFDKLMDSMVAEFLKNSRILAGDVETHAEMVHSAFQAQRAFLLMASQYQQPHENDVAALLKPISEKIQEIQTFRERNRGSNMFNHLSAVSESIPALGWIAVSPKPGPYVKEMNDAATFYTNRVLKDYKHSDLRHVDWVKSYLNIWSELQAYIKEHHTTGLTWSKTGPVASTVS
As to B7, the Kd in assay [2] worked out at 0.68 µM.
